Bridge positions count the residues as written; N and C are the ends. Square brackets hold non-standard residues; d marks the D form. Ends that are not written are not given here. S5 = C=CCCC[C@](C)(N)C(=O)O
Experiments:
VLCAD [1] = target: T1, VLCAD (Homo sapiens, UniProt P49748); test: In vitro VLCAD enzymatic activity assay (palmitoyl-CoA, ferrocenium hexafluorophosphate); assay type: biochemical; settings: 0.75 μM VLCAD pre-incubated overnight at 4° C. with 75 μM SAHB; substrate palmitoyl-CoA
T1 construct: 10x His (N); made in house; host or cells: E. coli BL21(DE3), pET19b
T1 sequence (P49748 40-655): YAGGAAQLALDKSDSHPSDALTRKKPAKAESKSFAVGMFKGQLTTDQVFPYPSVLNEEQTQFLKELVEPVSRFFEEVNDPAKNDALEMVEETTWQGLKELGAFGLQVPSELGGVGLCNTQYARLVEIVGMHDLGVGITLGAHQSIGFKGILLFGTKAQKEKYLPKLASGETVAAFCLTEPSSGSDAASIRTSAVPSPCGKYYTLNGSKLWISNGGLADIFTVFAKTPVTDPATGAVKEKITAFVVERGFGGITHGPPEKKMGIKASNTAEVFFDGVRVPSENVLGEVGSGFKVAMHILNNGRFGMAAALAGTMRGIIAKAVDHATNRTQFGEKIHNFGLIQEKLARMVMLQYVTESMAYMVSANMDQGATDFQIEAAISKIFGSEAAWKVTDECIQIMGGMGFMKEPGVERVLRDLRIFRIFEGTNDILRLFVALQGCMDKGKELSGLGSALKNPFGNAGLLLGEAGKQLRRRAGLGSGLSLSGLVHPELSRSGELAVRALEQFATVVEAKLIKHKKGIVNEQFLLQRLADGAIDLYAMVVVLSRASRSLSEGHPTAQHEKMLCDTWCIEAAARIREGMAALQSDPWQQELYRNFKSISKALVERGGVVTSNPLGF
Description: To assess whether the direct MCL-1/VLCAD binding interaction influences VLCAD enzymatic activity, an in vitro enzymatic activity assay was conducted. Recombinant VLCAD was incubated with its substrate (palmitoyl-CoA) and ferrocenium hexafluorophosphate, a strong electrophile. As VLCAD acts upon its substrate and oxidizes it, the ferrocenium hexafluorophosphate is reduced, causing a change in absorbance that is readily measured.
VLCAD. Mature human VLCAD lacking its cleavable leader sequence (aa 40-655) (NP_000009.1) was subcloned into the pET19b vector (Novagen) using NdeI and XhoI restriction sites. Correct insertion was confirmed by DNA sequencing. […]
VLCAD enzymatic activity was measured as previously described (see, e.g., Doulias et al., Sci Signal, 6(256):rs1 (2013); Lehman et al., Anal. Biochem., 186(2):280-284 (1990)). […] Where VLCAD activity was assessed in the presence of MCL-1 SAHBs, 0.75 μM VLCAD was incubated overnight at 4° C. with 75 μM SAHB and the protein-peptide mixture was used to initiate the ferrocenium reaction. Decrease in ferrocenium absorbance as a function of time at 300 nm was recorded and the initial velocity (V0) was calculated in units of U/mg using the molar absorptivity of ferrocenium (ε=4.3 mM^−1 cm^−1 at 300 nm) (see, e.g., Izai et al.). […]

MCL-1ΔNΔC = target: T2, MCL-1ΔNΔC (Homo sapiens, UniProt Q07820); test: Biolayer interferometry; assay type: binding; settings: Biotin-PEG peptide immobilized on streptavidin sensors
T2 construct: The MCL-1ΔNΔC construct was grown and expressed in E. coli as previously described; made in house; host or cells: E. coli BL21(DE3)
T2 sequence (Q07820 172-320 limits assumed, stated change not applied): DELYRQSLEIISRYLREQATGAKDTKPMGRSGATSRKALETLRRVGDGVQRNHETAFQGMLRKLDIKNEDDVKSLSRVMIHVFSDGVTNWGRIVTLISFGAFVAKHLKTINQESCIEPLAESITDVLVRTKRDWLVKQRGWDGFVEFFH

VLCAD [2] = target: T1, VLCAD; test: Biolayer interferometry; assay type: binding; settings: Biotin-PEG peptide immobilized on streptavidin sensors
Description: To measure the direct binding interaction, ^19F NMR binding studies were conducted using fluorinated analogs of MCL-1 SAHBD. […] Both SAHBs, however, bind MCL-1ΔNΔC, as illustrated by a chemical shift of the peptide NMR peak in both cases (FIG. 15). […] To perform these experiments, N-terminal Btn-PEG analogs of the peptides were immobilized onto streptavidin probes that were then placed into protein solutions at a variety of concentrations to measure ligand-target association.
VLCAD. Mature human VLCAD lacking its cleavable leader sequence (aa 40-655) (NP_000009.1) was subcloned into the pET19b vector (Novagen) using NdeI and XhoI restriction sites. Correct insertion was confirmed by DNA sequencing. The 10× His-tagged VLCAD construct was expressed in BL21(DE3) E. coli, and once cells reached an OD of 0.8 after growing at 37° C., they were induced with 0.5 mM […] (IPTG) (Gold Biotechnology I2481C) at 37° C. for 4 hours. Bacterial pellets were resuspended in lysis buffer (500 mM NaCl, 50 mM HEPES, 5% glycerol, pH 7.5, complete protease inhibitor tablet) and lysed by microfluidization (M-110L; Microfluidics). […]
BLI binding measurements were performed using an Octet Red384 System (ForteBio). […] Binding parameters were calculated using the accompanying Octet Software version 9 (ForteBio).

MCL-1 SAHBD: hydrocarbon-stapled peptide mimicking the MCL-1 BH3 domain (Stabilized Alpha-Helix of BCL-2 Domain), SEQ ID NO:19 (RKALETLRRVGDGV[S5]RNH[S5]TAF; staple 15-19)
effect on VLCAD enzymatic activity (VLCAD [1]): caused a decrease in enzymatic activity | biolayer interferometry association with MCL-1 (MCL-1ΔNΔC): bind to MCL-1 | biolayer interferometry association with VLCAD (VLCAD [2]): engages VLCAD
